Test results as given in publication PMC5666004.

Legend:
[1] = target: Htt-N20-GB1 (N-terminal 20-residue fragment of Htt with GB1 fused at the C terminus) (UniProt P42858); experiment: NMR titration; 15N-labelled Htt-N20-GB1 or mutants (50 μM) titrated with HSP90 constructs or HSP70; [1H,15N] HSQC peak intensities; 20 mM phosphate, 50 mM NaCl, pH 6.5, 25 °C
[2] = target: Htt-N20^S13P-GB1 (UniProt P42858); experiment: as above
[3] = target: HSP90-MC (residues 236–696) (UniProt P07900); experiment: SEC; Superdex-200 Increase 10/300 GL, ~100 μM protein loaded; 20 mM phosphate, 50 mM NaCl, pH 6.5; apparent molecular weights from calibration with standard proteins

Substance: HSP90(1–696) (from UniProt P07900 1-696) (domain or fragment)
- average relative peak intensity of the Htt-N20 moiety at a 1:1 ratio [1]: 0.59
- average relative peak intensity of the Htt-N20 moiety at a 1:1 ratio [2]: 0.86

Substance: HSP90-MC (residues 236–696) (from UniProt P07900 236-696) (domain or fragment)
- stoichiometry N [3]: 2
